Assay results published in publication PMC7604772 (The Journal of Cell Biology, 2020).
Square brackets hold non-standard residues; d marks the D form. * marks the point of attachment. Biotin = O=C1N[C@H]2[C@H](CS[C@H]2CCCCC(=O)*)N1; pT = C[C@@H](OP(=O)(O)O)[C@H](N)C(=O)O

B1: biotin-integrin phospho-peptide β1-762-798 pTpT (peptide)
peptide: Biotin-EFAKFEKEKMNAKWDTGENPIYKSAV[pT][pT]VVNPKYEGK-OH
SMILES: CC[C@H](C)[C@H](NC(=O)[C@@H]1CCCN1C(=O)[C@H](CC(N)=O)NC(=O)[C@H](CCC(=O)O)NC(=O)CNC(=O)[C@@H](NC(=O)[C@H](CC(=O)O)NC(=O)[C@H](Cc1c[nH]c2ccccc12)NC(=O)[C@H](CCCCN)NC(=O)[C@H](C)NC(=O)[C@H](CC(N)=O)NC(=O)[C@H](CCSC)NC(=O)[C@H](CCCCN)NC(=O)[C@H](CCC(=O)O)NC(=O)[C@H](CCCCN)NC(=O)[C@H](CCC(=O)O)NC(=O)[C@H](Cc1ccccc1)NC(=O)[C@H](CCCCN)NC(=O)[C@H](C)NC(=O)[C@H](Cc1ccccc1)NC(=O)[C@H](CCC(=O)O)NC(=O)CCCC[C@@H]1SC[C@@H]2NC(=O)N[C@@H]21)[C@@H](C)O)C(=O)N[C@@H](Cc1ccc(O)cc1)C(=O)N[C@@H](CCCCN)C(=O)N[C@@H](CO)C(=O)N[C@@H](C)C(=O)N[C@H](C(=O)N[C@H](C(=O)N[C@H](C(=O)N[C@H](C(=O)N[C@H](C(=O)N[C@@H](CC(N)=O)C(=O)N1CCC[C@H]1C(=O)N[C@@H](CCCCN)C(=O)N[C@@H](Cc1ccc(O)cc1)C(=O)N[C@@H](CCC(=O)O)C(=O)NCC(=O)N[C@@H](CCCCN)C(=O)O)C(C)C)C(C)C)[C@@H](C)OP(=O)(O)O)[C@@H](C)OP(=O)(O)O)C(C)C
B2: biotin-integrin peptide β1-762-798 (peptide)
peptide: Biotin-EFAKFEKEKMNAKWDTGENPIYKSAVTTVVNPKYEGK-OH
SMILES: CC[C@H](C)[C@H](NC(=O)[C@@H]1CCCN1C(=O)[C@H](CC(N)=O)NC(=O)[C@H](CCC(=O)O)NC(=O)CNC(=O)[C@@H](NC(=O)[C@H](CC(=O)O)NC(=O)[C@H](Cc1c[nH]c2ccccc12)NC(=O)[C@H](CCCCN)NC(=O)[C@H](C)NC(=O)[C@H](CC(N)=O)NC(=O)[C@H](CCSC)NC(=O)[C@H](CCCCN)NC(=O)[C@H](CCC(=O)O)NC(=O)[C@H](CCCCN)NC(=O)[C@H](CCC(=O)O)NC(=O)[C@H](Cc1ccccc1)NC(=O)[C@H](CCCCN)NC(=O)[C@H](C)NC(=O)[C@H](Cc1ccccc1)NC(=O)[C@H](CCC(=O)O)NC(=O)CCCC[C@@H]1SC[C@@H]2NC(=O)N[C@@H]21)[C@@H](C)O)C(=O)N[C@@H](Cc1ccc(O)cc1)C(=O)N[C@@H](CCCCN)C(=O)N[C@@H](CO)C(=O)N[C@@H](C)C(=O)N[C@H](C(=O)N[C@H](C(=O)N[C@H](C(=O)N[C@H](C(=O)N[C@H](C(=O)N[C@@H](CC(N)=O)C(=O)N1CCC[C@H]1C(=O)N[C@@H](CCCCN)C(=O)N[C@@H](Cc1ccc(O)cc1)C(=O)N[C@@H](CCC(=O)O)C(=O)NCC(=O)N[C@@H](CCCCN)C(=O)O)C(C)C)C(C)C)[C@@H](C)O)[C@@H](C)O)C(C)C

Biological target: His-Sumo–tagged talin F3 subdomain of the FERM domain (mouse, UniProt P26039 309-411)
Sequence (P26039 309-411): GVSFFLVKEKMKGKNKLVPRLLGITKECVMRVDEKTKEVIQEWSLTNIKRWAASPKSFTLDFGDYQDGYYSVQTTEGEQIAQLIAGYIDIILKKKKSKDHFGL
Assay: pull-down

Binder	binding result
B1	binds
B2	binds
